The record followed here is the supplement of paper PMC9170038.

The series has as its system MS2 coat protein. Description: apparent KD of MS2 coat protein; designed switch direction (-1 OFF switch, 1 ON switch): -1; higher = weaker reporter binding. Put shortly: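 An oligonucleotide input, 200 uM small-molecule ligand, or no input was present during titration of SNAP-549-labelled MS2 coat protein, which was doubled from 0.7 or 1.5 nM to 3 µM. Designed RNA switches had been transcribed on Illumina chips by stalled E. coli RNA polymerase. Apparent KD per design is the median over clusters of curves fitted to normalised cluster fluorescence.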

Where [1] appears, read: Eterna round: R95, input ligand: FMN 200 uM.
The mark [2] stands for this setting: Eterna round: R95, input ligand: microRNA oligo, concentration not stated.
Setting [3] is: Eterna round: R95, input ligand: none.
The mark [4] stands for this setting: input ligand: microRNA oligo, concentration not stated.

For the sequence “UUUAAAACAUAGGAUAUCGAAAUAAUCAUUUAACGAGAAGGAUGAACAUGAGGAUCACCCAUGUGGUAUCAUGG [Mat - Exclusion 6 - JL Mod - D18] (puzzle: Exclusion 6)”, the “apparent KD of MS2 coat protein” value by setting is: under setting [1], 364 nM; under setting [2], 230 nM; under setting [3], 409 nM.
In the case of “UGUACGAUGCGUGCUGACAUGCGUCGUGCAGCAGGUGAUACAUGAGGAUCACCCAUGUCCUCAUUUGCUCGUCUUGA [Mat - Sensor v3 - Turn-off var 2 - D20] (puzzle: Sensor v3, turn-off variant 2)”, the “apparent KD of MS2 coat protein” value came out at 68.5 nM under setting [1], 475 nM under setting [2] and 75.2 nM under setting [3].
On to “GAUAUCUCAGGAUAUACAUGCCCUCCGAAACGGAGUCAUGAACAUGAGGAUCACCCAUGUAGAAGGGAGAUAUC [Alacar 2] (Eterna round: R97, puzzle: Exclusion 2)”, for which the “apparent KD of MS2 coat protein” value amounted to 25.5 nM (input ligand: FMN 200 uM) and 15.8 nM (input ligand: none).
With “AAGGACAGAGGAUAUACAUAGAUACAGAUUCAUGUAGAACUACAUGAGGAUCACCCAUGUAGAAGGCUGUCCUA [Fiskers Ex 2 - 2] (Eterna round: R96, puzzle: Exclusion 2)”, the “apparent KD of MS2 coat protein” value was 412 nM (input ligand: FMN 200 uM), 25.3 nM under setting [4] and 31.7 nM (input ligand: none).
“CUCUCGGUAGGAUAUCCUCCGCCGAACAUGAGGAUCACCCAUGUCACUGCCACUACGCUAGGAGAAGGGCCAGACG [Eternabot (L2) Solution 55] (Eterna round: R97, puzzle: Exclusion 5)”: the “apparent KD of MS2 coat protein” value was 81.6 nM (input ligand: FMN 200 uM) and 85.8 nM (input ligand: none).
With “CUGAGGUAGCGGUCCUAUGACAUGAGGAUCACCCAUGUACCUUGCUUCGAGCAUUUUGCUCGUCUUAUGAUUCUCGG [Mat - Sensor v3 - turn-off var 1 - JL Mod - D35] (puzzle: Sensor v3, turn-off variant 1)”, the “apparent KD of MS2 coat protein” value reads like this: under setting [1], 450 nM; under setting [2], 481 nM; under setting [3], 507 nM.
For the sequence “CCAAGUUCAUAGGAUAUCAGACGGAUAAAGGUAUGAGAAGGAUGAACAUGAGGAUCACCCAUGUGCACUCCCGA [EX6 B.19] (Eterna round: R97, puzzle: Exclusion 6)”, the “apparent KD of MS2 coat protein” value was 34.1 nM (input ligand: FMN 200 uM) and 14.2 nM (input ligand: none).
In the case of “UCCUGGCGAGGAUAUACAAUGUUAUUCGCGUGUAGUUGGAAACAUGAGGAUCACCCAUGUAGAAGGUGCUACUG [JR_Ex2_Sub025] (Eterna round: R97, puzzle: Exclusion 2)”, the “apparent KD of MS2 coat protein” value is, setting by setting: (input ligand: FMN 200 uM) 27.4 nM; (input ligand: none) 23.8 nM.
“ACAUGAGGAUCACCCAUGUGAAAACAAUGGCUGACAAAGAGAUAGGAUAUAUGUGCAUAUCAAACAUAGAAGGGUCAUUACUGG [Deportation 87 - Jieux - Exclusion NG 3] (Eterna round: R96, puzzle: Exclusion NG 3)”: the “apparent KD of MS2 coat protein” value by setting is: (input ligand: FMN 200 uM) 42.7 nM; under setting [4], 42.5 nM; (input ligand: none) 49.8 nM.
For “AAUACUAACACGAAAGUGUUAGUACAAUAAGCUUGUGAAACAUGAGGAUCACCCAUGUCCUCAUAAGCUCGUCUUAA [salish99_TOv2_r3_011] (puzzle: Sensor v3, turn-off variant 2)”, the “apparent KD of MS2 coat protein” value is, setting by setting: under setting [1], 12.3 nM; under setting [2], 309 nM; under setting [3], 13.1 nM.
As for “AUAUUUAGCUUUUUGUGAAACAUGAGGAUCACCCAUGUCCUCAUACCUGGACAUUUAAGUCUAGGAGCUCGUCUUAU [Last end dangle 2] (Eterna round: R97, puzzle: Sensor, turn-off variant 1)”, the “apparent KD of MS2 coat protein” value (input ligand: FMN 200 uM) was determined as 479 nM and the “apparent KD of MS2 coat protein” value (input ligand: none) turned out to be 612 nM.
In the case of “CAUGAUCUUCGGAUCAUGUACAUGAGGAUCACCCAUGUGACGAGUUGAUCCUCAAACAAGCUUUUUGCUCGUCUUAU [Sensor v3 - Turn-off variant 1 - 18] (puzzle: Sensor v3, turn-off variant 1)”, the “apparent KD of MS2 coat protein” value runs as follows: under setting [1], 17 nM; under setting [2], 10.6 nM; under setting [3], 17.5 nM.
As to “AAGAUGCGGAUAGGAUAUGGAAAAAAAAAAGGAUUAGAAGGGUUGGUUAAAAUACAUGAGGAUCACCCAUGUGAAUCAUGAGAA [AK ExNG1-2.2] (Eterna round: R96, puzzle: Exclusion NG 1)”, the “apparent KD of MS2 coat protein” value reads like this: (input ligand: FMN 200 uM) 392 nM; under setting [4], 188 nM; (input ligand: none) 186 nM.
With “GAGUGACAUGAGGAUCACCCAUGUAAGGAUAUACGGUUGGUAGAGAGAGGGCUAAAGGGUAGAAGGUACGAAGG [JR_Exclu1_Sub055] (puzzle: Exclusion 1)”, the “apparent KD of MS2 coat protein” value under setting [2] was determined as 63.1 nM.
For “GUCUAGAGAGGAUAUAUUUACACUGUACGUCGGAUGAUUGCACUUGAGGAUCACCCAAGUAGAAGGCUCGAGGG [EX2 #33] (Eterna round: R97, puzzle: Exclusion 2)”, the “apparent KD of MS2 coat protein” value runs as follows: (input ligand: FMN 200 uM) 130 nM; (input ligand: none) 112 nM.
In the case of “AAAAGUGAAGAGGAUAUCUGCGCCGAACGGUAAAGAGAAGGCUUCACAUGAGGAUCACCCAUGUGGGCCACAGA [EX6 C.5] (Eterna round: R97, puzzle: Exclusion 6)”, the “apparent KD of MS2 coat protein” value turned out to be 79.3 nM (input ligand: FMN 200 uM) and 19.8 nM (input ligand: none).
Consider “GCCCGUGGGCAAGGAUAUCCUACGCUGUUCUGGUUCGUGUCUGUCACAUGAGGAUCACCCAUGUGGGAGAAGGUGCACCAGGGU [Design 52] (Eterna round: R96, puzzle: Exclusion NG 2)”, for which the “apparent KD of MS2 coat protein” value is, setting by setting: (input ligand: FMN 200 uM) 13.5 nM; under setting [4], 10.7 nM; (input ligand: none) 14.4 nM.
For “UAGAAUCGAGGAUAUACAUGAGGAUCACCCAUGUGUGGCCAUACUGUGUGGUCGUCAGGUAGAAGGCGAUUAUA [Exclusion 3 - Mod of Jieux's Gilly Gone Silly 23] (puzzle: Exclusion 3)”, under setting [2], the “apparent KD of MS2 coat protein” value worked out at 45.4 nM.
Consider “UUGUUCGAGCGGAGUUCUCACAUGAGGAUCACCCAUGUGCUCGUCUUGUGUGGUUCUGUGGCGUGGUUCGCGGUGCC [Sensor, turn-off variant 1] (Eterna round: R97, puzzle: Sensor, turn-off variant 1)”, for which the “apparent KD of MS2 coat protein” value is, setting by setting: (input ligand: FMN 200 uM) 237 nM; (input ligand: none) 292 nM.
With “CGAGCACGUGUAAGGAUAUGCUCGCUCUAUUUGGCGCAGAAGGUACAUGAGGAUCACCCAUGUAGCGACUUGGG [Eternabot (L2) Solution 7] (Eterna round: R97, puzzle: Brourd's mod of Exclusion 4)”, the “apparent KD of MS2 coat protein” value came out at 41.6 nM (input ligand: FMN 200 uM) and 27.6 nM (input ligand: none).
Regarding “CCAGGCAGGCUAUUUGCUCACAUGAGGAUCACCCAUGUUGUAUCCCUUGAAUCUAGAUGGUUCAGGCUUAAUUAUUU [Eternabot (L2) Solution 28] (Eterna round: R97, puzzle: Sensor, turn-off variant 1)”, the “apparent KD of MS2 coat protein” value is, setting by setting: (input ligand: FMN 200 uM) 47.5 nM; (input ligand: none) 66 nM.
For “UUGCGGAGAGGAUAUACAUAGGCGGAUUGGUAGACUCAAAUACAUGAGGAUCACCCAUGUAGAAGGCUUGAUCA [Eternabot (L2) Solution 22] (Eterna round: R97, puzzle: Exclusion 2)” the same measures were 144 nM and 50.4 nM.
For “ACGCGUUUAGGAUAUACGUGCCUUGACAGUCCUAUUGUGUUACAUGAGGAUCACCCAUGUAGAAGGAGGCCGCG [Eternabot (L1) Solution 79] (Eterna round: R97, puzzle: Exclusion 2)”, the “apparent KD of MS2 coat protein” value is, setting by setting: (input ligand: FMN 200 uM) 19.4 nM; (input ligand: none) 20.2 nM.
Consider “AAGGGUGCUUUCGGAACGACAUGAGGAUCACCCAUGUAGACUGAGGAUAUCUACUUCUAAGGACGGGAGAAGGCAGUGUAAUGC [Ex NG3 #69] (Eterna round: R96, puzzle: Exclusion NG 3)”, for which the “apparent KD of MS2 coat protein” value (input ligand: FMN 200 uM) turned out to be 47.8 nM, the “apparent KD of MS2 coat protein” value under setting [4] was found to be 28.3 nM and the “apparent KD of MS2 coat protein” value (input ligand: none) is 42.6 nM.
Regarding “ACUAGAUGAGGAUAUGCAUAUUUUCGUGUUCUUCUAGAUUAACAUGAGGAUCACCCAUGUAGAAGGCGUCUGGC [Exclusion 2 - 20] (puzzle: Exclusion 2)”, under setting [2], the “apparent KD of MS2 coat protein” value was 18 nM.
On to “UUAUAUAAUGUGAGGAUAUGCUGGUCCUUAGAUCAGCAGAAGGCACAUGAGGAUCACCCAUGUAGUAAAUUUUA [Mat - Exclusion 4 - JL Mod - D11] (puzzle: Brourd's mod of Exclusion 4)”, for which the “apparent KD of MS2 coat protein” value is, setting by setting: under setting [1], 25 nM; under setting [2], 15.3 nM; under setting [3], 16.8 nM.
As to “GAGAGAAUCUAGGAUAUGUCAAGAGAAGGAGAGAUAGAAGGAGAGACAUGAGGAUCACCCAUGUCUUCGUGUAG [Default title] (Eterna round: R97, puzzle: Exclusion 6)”, the “apparent KD of MS2 coat protein” value is, setting by setting: (input ligand: FMN 200 uM) 19.4 nM; (input ligand: none) 17.8 nM.
In the case of “GUAAAACAUGAGGAUCACCCAUGUCAGGAUAUACGAAUCCACCCUAACUGCGUGGAUCGUAGAAGGGACAUAGG [Exclusion 1 (MOD5.1 Esqu)] (Eterna round: R97, puzzle: Exclusion 1)”, the “apparent KD of MS2 coat protein” value came to 17.9 nM (input ligand: FMN 200 uM) and 44.7 nM (input ligand: none).
Turning to “AACAUGGCAGAGGAUAUAGGACGCUGGCAUAAACUAGAAGGCUGCACAUGAGGAUCACCCAUGUGUUCCAAAAC [Atquisuson] (Eterna round: R97, puzzle: Exclusion 6)”, the “apparent KD of MS2 coat protein” value turned out to be 38.6 nM (input ligand: FMN 200 uM) and 22.6 nM (input ligand: none).
For the sequence “AUGCUCCGUGUAGGAUAUCGCCGUAUCACUCGGCGAGAAGGACAUGAGGAUCACCCAUGUAUGUUAUUAUCACGUGUGGCGCGC [Design 45] (Eterna round: R96, puzzle: Exclusion NG 1)”, the “apparent KD of MS2 coat protein” value runs as follows: (input ligand: FMN 200 uM) 55.2 nM; under setting [4], 14.8 nM; (input ligand: none) 18.3 nM.
